Measured values published in IntAct's records for PubMed 16717130.

Target: git1_human GIT1 (UniProt Q9Y2X7)
Sequence (Q9Y2X7 whole entry): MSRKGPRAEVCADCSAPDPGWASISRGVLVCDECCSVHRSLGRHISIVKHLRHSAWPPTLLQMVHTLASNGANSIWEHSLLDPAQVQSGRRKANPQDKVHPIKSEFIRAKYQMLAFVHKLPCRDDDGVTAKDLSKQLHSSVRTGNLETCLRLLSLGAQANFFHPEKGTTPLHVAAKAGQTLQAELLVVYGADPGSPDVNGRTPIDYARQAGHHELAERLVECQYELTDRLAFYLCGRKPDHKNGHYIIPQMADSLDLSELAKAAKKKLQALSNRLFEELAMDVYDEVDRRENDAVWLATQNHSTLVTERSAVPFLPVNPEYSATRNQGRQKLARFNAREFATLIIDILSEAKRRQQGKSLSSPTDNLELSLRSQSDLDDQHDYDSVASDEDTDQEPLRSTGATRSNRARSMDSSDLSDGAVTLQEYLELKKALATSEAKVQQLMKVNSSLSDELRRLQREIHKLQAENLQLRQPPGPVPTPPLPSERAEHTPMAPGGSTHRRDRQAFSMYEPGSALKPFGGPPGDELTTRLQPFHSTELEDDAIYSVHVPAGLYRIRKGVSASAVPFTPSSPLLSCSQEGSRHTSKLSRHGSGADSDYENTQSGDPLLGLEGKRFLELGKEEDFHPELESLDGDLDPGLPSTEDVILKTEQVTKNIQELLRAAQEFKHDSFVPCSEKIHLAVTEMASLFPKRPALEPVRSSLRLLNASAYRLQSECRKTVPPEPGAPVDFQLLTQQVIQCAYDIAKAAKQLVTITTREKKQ

Sequence of Paxillin (Gallus gallus (Chicken)), P49024 S273D (P49024 whole entry S273D): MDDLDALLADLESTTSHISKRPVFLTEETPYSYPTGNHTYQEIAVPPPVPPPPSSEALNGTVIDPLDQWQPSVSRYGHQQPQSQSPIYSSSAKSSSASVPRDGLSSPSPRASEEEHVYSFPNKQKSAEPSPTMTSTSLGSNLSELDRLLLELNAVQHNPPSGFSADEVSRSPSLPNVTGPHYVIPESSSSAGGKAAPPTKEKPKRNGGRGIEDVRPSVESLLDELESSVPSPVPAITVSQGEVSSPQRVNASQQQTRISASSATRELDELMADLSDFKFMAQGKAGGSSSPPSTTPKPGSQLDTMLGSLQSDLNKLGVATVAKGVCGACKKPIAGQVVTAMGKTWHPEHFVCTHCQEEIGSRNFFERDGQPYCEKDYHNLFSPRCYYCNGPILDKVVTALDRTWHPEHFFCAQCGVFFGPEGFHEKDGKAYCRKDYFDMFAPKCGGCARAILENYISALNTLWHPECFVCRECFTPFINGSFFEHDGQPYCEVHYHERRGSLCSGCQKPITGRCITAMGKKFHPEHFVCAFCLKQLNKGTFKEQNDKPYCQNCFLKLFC
Sequence of Paxillin (Gallus gallus (Chicken)), P49024 S273A (P49024 whole entry S273A): as the sequence (P49024 whole entry S273D) above, with D273A counted along it

effect of a mutation on the interaction	Substance
decreasing interaction	Paxillin (Gallus gallus (Chicken)), P49024 S273A
increasing interaction	Paxillin (Gallus gallus (Chicken)), P49024 S273D
